Source: article PMC4023160, “Head-to-tail interactions of the coiled-coil domains regulate ClpB activity and cooperation with Hsp70 in protein disaggregation” (eLife, 2014)

Columns and labels:
[1] = biological target: the molecule itself; test: cross-linking; disulfide cross-linking: 4 μM ClpB cysteine variant, 25 μM Cu-Phenanthroline, 1 min at room temperature; non-reducing SDS gradient gel (3-8%)
[2] = biological target: the molecule itself; test: FRET or BRET; Trp (Q427W, donor) to IAEDANS (Q502C, acceptor) between adjacent subunits; low salt buffer A (50 mM Tris pH 7.5, 5 mM MgCl2, 20 mM KCl, 2 mM DTT) without or with 2 mM ATP, 25°C, excitation 290 nm
[3] = biological target: the molecule itself; test: crystal structure; SeMet protein with ATP (ADP bound), space group P65, one molecule in the asymmetric unit, 3.50 Å
[4] = biological target: the molecule itself; test: negative-stain EM single-particle reconstruction; BAP(HAP)-ClpP complexes formed in 20 mM Tris-HCl pH 7.5, 20 mM KCl, 15 mM MgCl2, 1 mM DTT, 2 mM ATPγS; stained with 2% uranyl acetate; side views of 2:2 complexes cut into 1:1 halves; sixfold symmetry imposed or none

| Protein | binding result [1] | binding result [2] | other results |
| --- | --- | --- | --- |
| ClpB-K431C-S499C hyperactive (Y503D) variant (natural protein, ClpB of E. coli; source: purified (Ni-IDA, size exclusion chromatography Superdex S200); dialyzed to remove DTT) not shown | binds | – | – |
| ClpB-K431C-S499C repressed (E432A) variant (natural protein, ClpB of E. coli; source: purified (Ni-IDA, size exclusion chromatography Superdex S200); dialyzed to remove DTT) not shown | binds | – | – |
| ClpB-Q427W-Q502C-IAEDANS (W462Y/W543L) with E432A (natural protein, IAEDANS on the cysteine at 502 (Q502C), labelled with efficiencies of 70-80%, ClpB of E. coli; also called E432A (FRET pair); source: purified (Ni-IDA, size exclusion chromatography Superdex S200); labelled with 1,5-IAEDANS) not shown | – | binds | – |
| ND truncation of E. coli ClpB (residues 159 to 858; E279A/E432A/E678A), SeMet (domain or fragment, selenomethionine (SeMet), ClpB of E. coli, residues 159 to 858, without the N-terminal domain; One molecule in the asymmetric unit (P65); monomers form a spiral assembly in the crystal; also called ClpB E279A/E432A/E678A (SeMet) + ATP; E. coli ClpB-E432A (crystal structure); source: purified (Ni-IDA, size exclusion chromatography Superdex S200)) not shown | – | – | binding result [3]: binds |
| ClpP protease (enzyme, ClpP protease; source: purified as described previously (Oguchi et al., 2012); copies: 14) not shown | – | – | stoichiometry N [4]: 14 |
| ClpB-Q427W-Q502C-IAEDANS in the tryptophan-free ClpB-W462Y/W543L variant (natural protein, IAEDANS on the cysteine at 502 (Q502C), labelled with efficiencies of 70-80%, ClpB of E. coli; also called wild type ClpB (FRET pair); source: purified (Ni-IDA, size exclusion chromatography Superdex S200); labelled with 1,5-IAEDANS) not shown | – | binds | – |
